# Measured values taken from patent US8906844B2 (SYNTONIX PHARMACEUTICALS, dated 2014).
# Positions of bridges follow the written chain, without caps; N, C: chain ends. Non-standard residues stand in square brackets, D forms with d. No end group written: not given here. Pen = CC(C)(S)[C@H](N)C(=O)O; βAla = NCCC(=O)O
# B1: Peptide No. 211 (peptide)
# peptide: FVTGHFG[dP]WYPA-NH2
# modifications: N-terminus assumed
# SMILES: CC(C)[C@H](NC(=O)[C@@H](N)Cc1ccccc1)C(=O)N[C@H](C(=O)NCC(=O)N[C@@H](Cc1c[nH]cn1)C(=O)N[C@@H](Cc1ccccc1)C(=O)NCC(=O)N1CCC[C@@H]1C(=O)N[C@@H](Cc1c[nH]c2ccccc12)C(=O)N[C@@H](Cc1ccc(O)cc1)C(=O)N1CCC[C@H]1C(=O)N[C@@H](C)C(N)=O)[C@@H](C)O
# B2: Peptide No. 288 (peptide)
# peptide: RFXTGHFGXXYPCGG
# modifications: Pen3; Sar9; NMeLeu10; intrachain disulfide; C-termini joined through a branching Lys
# notes: dimer made as Peptide No. 280
# B3: Peptide No. 25 (peptide)
# peptide: QRFCGHF[βAla]LYPCNGP-NH2
# modifications: disulfide 4-12; N-terminus assumed
# SMILES: CC(C)C[C@@H]1NC(=O)CCNC(=O)[C@H](Cc2ccccc2)NC(=O)[C@H](Cc2c[nH]cn2)NC(=O)CNC(=O)[C@@H](NC(=O)[C@H](Cc2ccccc2)NC(=O)[C@H](CCCNC(=N)N)NC(=O)[C@@H](N)CCC(N)=O)CSSC[C@@H](C(=O)N[C@@H](CC(N)=O)C(=O)NCC(=O)N2CCC[C@H]2C(N)=O)NC(=O)[C@@H]2CCCN2C(=O)[C@H](Cc2ccc(O)cc2)NC1=O
# notes: printed QRFCGHF-betaAla-LYPCNGP (no Thr)
# B4: Peptide No. 151 (peptide)
# peptide: QRF[Pen]TGHF[dF][dA]LYPCNGP-NH2
# modifications: disulfide 4-14; N-terminus assumed
# SMILES: CC(C)C[C@@H]1NC(=O)[C@@H](C)NC(=O)[C@@H](Cc2ccccc2)NC(=O)[C@H](Cc2ccccc2)NC(=O)[C@H](Cc2c[nH]cn2)NC(=O)CNC(=O)[C@H]([C@@H](C)O)NC(=O)[C@@H](NC(=O)[C@H](Cc2ccccc2)NC(=O)[C@H](CCCNC(=N)N)NC(=O)[C@@H](N)CCC(N)=O)C(C)(C)SSC[C@@H](C(=O)N[C@@H](CC(N)=O)C(=O)NCC(=O)N2CCC[C@H]2C(N)=O)NC(=O)[C@@H]2CCCN2C(=O)[C@H](Cc2ccc(O)cc2)NC1=O
# B5: Peptide No. 289 (peptide)
# peptide: RFXTGHFGXXYPC
# modifications: Pen3; Sar9; NMeLeu10; intrachain disulfide; N-termini joined by Asp; linker amine acylated with PEG 30 kDa succinimidyl ester; C-terminal amide
# notes: also called pegylated analog of Peptide No. 285
# B6: Peptide No. 280 (peptide)
# peptide: RFXTGHFGXXYPC
# modifications: sequence analogous to Peptide No. 235; C-termini joined through a branching Lys (Fmoc-Lys(Fmoc)-OH); intrachain disulfide
# notes: dimer
# B7: Peptide No. 287 (peptide)
# peptide: RFXTGHFGXXYPCG
# modifications: Pen3; Sar9; NMeLeu10; intrachain disulfide; C-termini joined through a branching Lys
# notes: dimer made as Peptide No. 280
# B8: Peptide No. 279 (peptide)
# peptide: RFXTGHFGXXYPC
# modifications: Pen3; Sar9; NMeLeu10; intrachain disulfide; N-termini joined by Bis-dPEG6 diacid linker; C-terminal amide
# B9: Peptide No. 167 (peptide)
# peptide: QRFVTGHFG[dP]LYPVNGP-NH2
# modifications: N-terminus assumed
# SMILES: CC(C)C[C@H](NC(=O)[C@H]1CCCN1C(=O)CNC(=O)[C@H](Cc1ccccc1)NC(=O)[C@H](Cc1c[nH]cn1)NC(=O)CNC(=O)[C@@H](NC(=O)[C@@H](NC(=O)[C@H](Cc1ccccc1)NC(=O)[C@H](CCCNC(=N)N)NC(=O)[C@@H](N)CCC(N)=O)C(C)C)[C@@H](C)O)C(=O)N[C@@H](Cc1ccc(O)cc1)C(=O)N1CCC[C@H]1C(=O)N[C@H](C(=O)N[C@@H](CC(N)=O)C(=O)NCC(=O)N1CCC[C@H]1C(N)=O)C(C)C
# B10: Peptide No. 176 (peptide)
# peptide: QRFVTGHFG[dP]YYPANGP-NH2
# modifications: N-terminus assumed
# SMILES: CC(C)[C@H](NC(=O)[C@H](Cc1ccccc1)NC(=O)[C@H](CCCNC(=N)N)NC(=O)[C@@H](N)CCC(N)=O)C(=O)N[C@H](C(=O)NCC(=O)N[C@@H](Cc1c[nH]cn1)C(=O)N[C@@H](Cc1ccccc1)C(=O)NCC(=O)N1CCC[C@@H]1C(=O)N[C@@H](Cc1ccc(O)cc1)C(=O)N[C@@H](Cc1ccc(O)cc1)C(=O)N1CCC[C@H]1C(=O)N[C@@H](C)C(=O)N[C@@H](CC(N)=O)C(=O)NCC(=O)N1CCC[C@H]1C(N)=O)[C@@H](C)O
# B11: Peptide No. 175 (peptide)
# peptide: QRFVTGHFG[dP]FYPANGP-NH2
# modifications: N-terminus assumed
# SMILES: CC(C)[C@H](NC(=O)[C@H](Cc1ccccc1)NC(=O)[C@H](CCCNC(=N)N)NC(=O)[C@@H](N)CCC(N)=O)C(=O)N[C@H](C(=O)NCC(=O)N[C@@H](Cc1c[nH]cn1)C(=O)N[C@@H](Cc1ccccc1)C(=O)NCC(=O)N1CCC[C@@H]1C(=O)N[C@@H](Cc1ccccc1)C(=O)N[C@@H](Cc1ccc(O)cc1)C(=O)N1CCC[C@H]1C(=O)N[C@@H](C)C(=O)N[C@@H](CC(N)=O)C(=O)NCC(=O)N1CCC[C@H]1C(N)=O)[C@@H](C)O
# B12: Peptide No. 169 (peptide)
# peptide: QRFVTGHFG[dP]LYPINGP-NH2
# modifications: N-terminus assumed
# SMILES: CC[C@H](C)[C@H](NC(=O)[C@@H]1CCCN1C(=O)[C@H](Cc1ccc(O)cc1)NC(=O)[C@H](CC(C)C)NC(=O)[C@H]1CCCN1C(=O)CNC(=O)[C@H](Cc1ccccc1)NC(=O)[C@H](Cc1c[nH]cn1)NC(=O)CNC(=O)[C@@H](NC(=O)[C@@H](NC(=O)[C@H](Cc1ccccc1)NC(=O)[C@H](CCCNC(=N)N)NC(=O)[C@@H](N)CCC(N)=O)C(C)C)[C@@H](C)O)C(=O)N[C@@H](CC(N)=O)C(=O)NCC(=O)N1CCC[C@H]1C(N)=O
# B13: Peptide No. 174 (peptide)
# peptide: QRFVTGHFG[dP]IYPANGP-NH2
# modifications: N-terminus assumed
# SMILES: CC[C@H](C)[C@H](NC(=O)[C@H]1CCCN1C(=O)CNC(=O)[C@H](Cc1ccccc1)NC(=O)[C@H](Cc1c[nH]cn1)NC(=O)CNC(=O)[C@@H](NC(=O)[C@@H](NC(=O)[C@H](Cc1ccccc1)NC(=O)[C@H](CCCNC(=N)N)NC(=O)[C@@H](N)CCC(N)=O)C(C)C)[C@@H](C)O)C(=O)N[C@@H](Cc1ccc(O)cc1)C(=O)N1CCC[C@H]1C(=O)N[C@@H](C)C(=O)N[C@@H](CC(N)=O)C(=O)NCC(=O)N1CCC[C@H]1C(N)=O
# B14: Peptide No. 286 (peptide)
# peptide: RFXTGHFGXXYPC
# modifications: Pen3; Sar9; NMeLeu10; intrachain disulfide; N-termini joined by Glu (from Boc-Glu(OH)-OH) with a free amine; C-terminal amide
# Target: T1, soluble human FcRn (shFcRn) (human, UniProt P55899 24-297; P61769 21-119, biotinylated with Sulfo-NHS-LC-Biotin in the ELISA; amine-coupled to a CM5 chip in SPR)
# T1 construct: also called biotinylated shFcRn
# Assay: SPR, pH 6
# Protocol: The following steps were performed to cross-link soluble human or cynomolgus FcRn to the dextran surface of a CM5 sensor chip (Biacore AB, Uppsala, Sweden) by an amine coupling reaction involving 1-ethyl-(3-dimethylaminopropyl)-carbodiimide hydrochloride (EDC) (Biacore AB, Uppsala, Sweden) and N-hydroxysuccinimide (NHS) (Biacore AB, Uppsala, Sweden) as recommended by Biacore (BIAapplications Handbook, version AB, section 4.2, Biacore AB, Uppsala, Sweden). The FcRn protein was diluted in 50 mM sodium acetate, pH 4.5 (Biacore AB, Uppsala, Sweden) to a concentration of 10 to 30 µg/ml and used to coat one flow cell on the sensor chip. Residual sites on the FcRn flow cell were blocked with 1 M ethanolamine hydrochloride pH 8.5 (Biacore AB, Uppsala, Sweden). A control flow cell was blocked with ethanolamine for reference subtraction. For analysis of the monomeric peptides, FcRn was coated to a final density of 4000-5000 response units (RU). For analysis of the peptide dimers, FcRn was coated to a density of 2000-2500 RU. All SPR measurements were performed using a BIACORE 3000 Instrument (Biacore AB Uppsala, Sweden). For measurements done at either pH 6 or pH 7.4, experiments were performed in 50 mM phosphate, 100 mM sodium chloride, 0.01% surfactant P20 (Biacore AB, Uppsala, Sweden).
# A. Representative Procedure for the Determination of Binding Constant of Monomeric Peptides Ten 2-fold dilutions of the peptide were injected over the FcRn-CM5 chip at a rate of 20 µl/min for 2 min. The peptide was dissociated from the chip for 2.5 minutes with buffer. Any remaining peptide was removed from the chip with a 30 second injection of HBS-P buffer (Biacore AB, Uppsala, Sweden) at a rate of 30 µl/min. Sensorgrams were generated and analyzed using BiaEval software version 3.1 (Biacore AB, Uppsala, Sweden). The equilibrium RU observed for each injection was plotted against concentration. The equilibrium K_D values were derived by analysis of the plots using the steady state affinity model included in the BiaEval software.
row,Kd,Binder
1,8 µM,B1
2,9.9 µM,RFXTGAFGXXYPC (Pen3; Sar9; NMeLeu10; disulfide; C-terminal amide) [Peptide No. 266]
3,0.14 µM,RFXTGHFGXLYPC (Pen3; D-Pro9; disulfide; C-terminal amide) [Peptide No. 142]
4,2.1 µM,QRFDTGHFGXLYPKNGP (D-Ala10; lactam bridge Asp4-Lys14 side chains; C-terminal amide) [Peptide No. 105]
5,0.28 µM,QRFXTGHFGXLYPXNGP (Pen4; D-Pro10; Pen14; disulfide; C-terminal amide) [Peptide No. 295]
6,2 µM,QRFXTGHFXGLYPCNGP (Pen4; Sar9; disulfide; C-terminal amide) [Peptide No. 111]
7,3.8 µM,QRFXTGHFXPLYPCNGP (Pen4; D-Phe9; disulfide; C-terminal amide) [Peptide No. 203]

# Target: T1, soluble human FcRn (shFcRn)
# Assay: competition ELISA vs human IgG
# Protocol: The wells were coated with 100 μl/well of 1 μg/ml biotinylated-shFcRn in Buffer A. The plate was sealed and incubated at 37° C. for 2 hours. Afterwards, the plate was washed with 200 μl/well of Buffer B (Buffer B: 100 mM MES pH 6, 150 mM NaCl, 0.5% BSA IgG-free (Jackson ImmunoResearch, West Grove, Pa.), 0.05% Tween-20). […] To allow for mixing, the plate was rocked for 2 minutes, sealed and incubated at 37° C. for 2 hours. […] The plate was covered, incubated for 30 minutes at room temperature and washed 4 times with 200 μl/well of ice-cold buffer B. SureBlue TMB substrate solution (100 μl/well, KPL, Gaithersburg, Md.) was added and the plate was allowed to incubate at room temperature until color developed, which took 5 to 10 minutes. Once color developed, 100 μl/well of TMB stop solution (KPL, Gaithersburg, Md.) was added and the absorbance was measured at 450 nm.
row,IC50,Binder
1,0.016 µM,B2
2,> 125 µM,B3
3,4.1 µM,QRFXTGHFXGLYPCNGP (Pen4; D-Arg9; disulfide; C-terminal amide) [Peptide No. 49]
4,4.3 µM,B4
5,0.018 µM,B5
6,0.025 µM,B6
7,3.2 µM,QRFXTGHFXGLYPCNGP (Pen4; D-Tyr9; disulfide; C-terminal amide) [Peptide No. 53]
8,0.02 µM,B7
9,0.007 µM,B8
10,> 125 µM,QRFCTGHFGGLFPCNGP (disulfide; C-terminal amide) [Peptide No. 26]
11,93 µM,B9
12,230 µM,B10
13,200 µM,B11
14,72 µM,B12
15,150 µM,QRFVTGHFGXLYPWNGP (D-Pro10; unbridged; C-terminal amide) [Peptide No. 172]
16,94 µM,B13
17,150 µM,QRFVTGHFGXLYPYNGP (D-Pro10; unbridged; C-terminal amide) [Peptide No. 171]
18,0.0056 µM,B14
19,11.4 µM,QRXXTGHFGGLYPCNGP (D-Phe3; Pen4; disulfide; C-terminal amide) [Peptide No. 96]
20,1.6 µM,QRFXTGHFGXLYPXNGP (Pen4; D-Pro10; Pen14; disulfide; C-terminal amide) [Peptide No. 295]
21,125 µM,QRFCTGHFGGLYPXNGP (D-Cys14; disulfide; C-terminal amide) [Peptide No. 30]
